Results reported in doi:10.1101/2022.04.14.488316 (bioRxiv, 2022).
No end group written: not given here.

Legend:
Assay in all cases: fluorescence polarisation
[1] = molecular target: VHL-ElonginC-ElonginB (VCB) with VHL N67Q (UniProt P40337;Q15369;Q15370, N67Q)
[2] = molecular target: VHL-ElonginC-ElonginB (VCB) with VHL P71I (UniProt P40337;Q15369;Q15370, P71I)
[3] = molecular target: VHL-ElonginC-ElonginB (VCB), wild type (UniProt P40337;Q15369;Q15370)

Measured: binding result

Chain of VHL-ElonginC-ElonginB (VCB) with VHL P71I (P40337 54-213 P71I, chain 1 of 3): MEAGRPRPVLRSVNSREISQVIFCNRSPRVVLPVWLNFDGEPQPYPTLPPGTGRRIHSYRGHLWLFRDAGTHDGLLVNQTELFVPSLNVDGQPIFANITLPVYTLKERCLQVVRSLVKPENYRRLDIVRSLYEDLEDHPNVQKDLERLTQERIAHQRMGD
Chain of VHL-ElonginC-ElonginB (VCB) with VHL P71I (Q15369 17-112, chain 2 of 3): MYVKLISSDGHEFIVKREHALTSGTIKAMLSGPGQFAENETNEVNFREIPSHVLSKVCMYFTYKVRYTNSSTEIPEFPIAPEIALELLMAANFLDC
Chain of VHL-ElonginC-ElonginB (VCB) with VHL P71I (Q15370 1-104, chain 3 of 3): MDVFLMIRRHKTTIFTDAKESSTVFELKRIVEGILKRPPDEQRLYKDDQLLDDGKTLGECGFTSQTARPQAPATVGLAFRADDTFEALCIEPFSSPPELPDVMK
Chain of VHL-ElonginC-ElonginB (VCB) with VHL N67Q (P40337 54-213 N67Q, chain 1 of 3): as the sequence (P40337 54-213 P71I, chain 1 of 3) above, with N14Q, I18P counted along it
Chain of VHL-ElonginC-ElonginB (VCB) with VHL N67Q (Q15369 17-112, chain 2 of 3): as the sequence (Q15369 17-112, chain 2 of 3) above
Chain of VHL-ElonginC-ElonginB (VCB) with VHL N67Q (Q15370 1-104, chain 3 of 3): as the sequence (Q15370 1-104, chain 3 of 3) above
Chain of VHL-ElonginC-ElonginB (VCB), wild type (P40337 54-213, chain 1 of 3): as the sequence (P40337 54-213 P71I, chain 1 of 3) above, with I18P counted along it
Chain of VHL-ElonginC-ElonginB (VCB), wild type (Q15369 17-112, chain 2 of 3): as the sequence (Q15369 17-112, chain 2 of 3) above
Chain of VHL-ElonginC-ElonginB (VCB), wild type (Q15370 1-104, chain 3 of 3): as the sequence (Q15370 1-104, chain 3 of 3) above

DEALAPYIPMDDDFQLRSF (also: FAM label, site not given here) [5,6-carboxyfluorescein (FAM)-labeled HIF-1α peptide JC9]
binds: all assays above
